For assay [1], the target named is recombinant mouse IL-2 (mouse) (UniProt P04351). Briefly: cell-based or functional assay.
In assay [2] the target is T1, human CD25 expressed on cells (Karpas 299, SU-DHL-1, SR-786, in vitro differentiated Treg cells, PBMC) (human, UniProt P01589 22-272).
T1 construct: also called CD25 expressing cells
T1 sequence: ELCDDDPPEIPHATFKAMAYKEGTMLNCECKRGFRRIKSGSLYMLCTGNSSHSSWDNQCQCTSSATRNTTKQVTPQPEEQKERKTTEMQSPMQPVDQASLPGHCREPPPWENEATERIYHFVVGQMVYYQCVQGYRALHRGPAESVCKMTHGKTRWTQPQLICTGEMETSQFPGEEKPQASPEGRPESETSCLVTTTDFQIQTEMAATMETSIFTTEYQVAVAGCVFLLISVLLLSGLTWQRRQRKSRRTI
Briefly: flow cytometry titration on Karpas 299 cells, AF647 secondary antibody [Figure 68 continued].

For assay [3], the target named is T1, human CD25 expressed on cells (Karpas …). The assay is described as above. The source holds these as a separate data set.
The target of assay [4] is T2, recombinant mouse CD25 (mouse, UniProt P01590 22-236, biotinylated in FIG. 1A (site not stated)).
T2 construct: also called biotinylated mouse CD25
T2 sequence (looked up): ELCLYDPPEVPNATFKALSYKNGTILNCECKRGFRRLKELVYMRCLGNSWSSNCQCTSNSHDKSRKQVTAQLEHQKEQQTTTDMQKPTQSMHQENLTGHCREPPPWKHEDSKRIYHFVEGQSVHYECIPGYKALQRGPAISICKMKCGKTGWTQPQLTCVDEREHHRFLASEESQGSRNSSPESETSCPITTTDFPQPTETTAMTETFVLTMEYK
Put plainly: BLI tandem cross-blocking: biotinylated mouse CD25 on SA sensor, 100 nM mouse IL-2, then antibody at 150 s.

For assay [5], the target named is T1, human CD25 expressed on cells (Karpas …). Briefly: flow cytometry titration on Karpas 299 cells, AF647 secondary antibody.
The target is the same in assay [6]. Briefly: flow cytometry titration on Karpas 299 cells, AF647 secondary antibody [Figure 68 continued]. The source holds these as a separate data set.
For assay [7] the target is unchanged. Described as above. The source holds these as a separate data set.
Assay [8] shares this target. Described as above. This is another data set of the same source.
The target is the same in assay [9]. Briefly: flow cytometry titration on Karpas 299 cells, AF647 secondary antibody. The source holds these as a separate data set.
For assay [10] the target is unchanged. Put plainly: flow cytometry titration on Karpas 299 cells, AF647 secondary antibody [Figure 68 continued]. The source holds these as a separate data set.
Assay [11] shares this target. Briefly: flow cytometry titration on Karpas 299 cells, AF647 secondary antibody. This is another data set of the same source.
Assay [12] has the same target. Described as above. This is another data set of the same source.
For assay [13], the target named is T2, recombinant mouse CD25. Put plainly: BLI Octet RED384, IgG on AHQ sensors, 100 nM antigen, 1:1 model.
Assay [14] addresses T3, recombinant mouse CD25 his tagged (mouse, UniProt P01590 22-236, limits assumed).
T3 construct: also called rmCD25 his tagged; mCD25; not shown: his tag
T3 sequence (looked up): T2 sequence (looked up)
Briefly: SPR Biacore 2000, antibody captured by anti-mouse antibody on CM-5 chip, recombinant mouse CD25 his tagged as analyte, bivalent analyte model.

Where a chain is given by its changes, count along the chain named.

Turning to “neutralizing anti-mouse IL-2 antibody, clone Jes6-1A12”, the frequency of CD4 T cells both proliferating and producing Granzyme B after anti-CD3/anti-CD28 stimulation in assay [1] was less than 1%.

B1: Antibody 18 (antibody, V domains shown)
VH: QVQLVESGGGVVQPGGSLRLSCAVSGFSLTSYGIQWVRQAPGKGLEWVSVIWAGGSTNYNSALMSRFTISKDNSKSTLYLQMNSLRAEDTAVYYCARAYGYDGSWLAYWGQGTLVTVSS
VL: EIVLTQSPATLSLSPGERATLSCRASSSVSYMHWYQQKPGQAPRPLIFATSNLASGIPARFSGSGSGTDFTLTISSLEPEDFAVYYCQQWSSNPPTFGGGTKLEIK
notes: also called Ab18
With B1, the “EC50 (read off the curve)” value in assay [2] is roughly 0.3 µg/mL.

B2: Antibody 19 (antibody, V domains shown)
VH: B1 VH
VL: B1 VL with E1Q, F70Y
notes: also called Ab19; Antibodyl9
For the molecule B2, in assay [3], the “EC50 (read off the curve)” value is roughly 0.3 µg/mL.

B3: recombinant mouse IL-2 (ligand, UniProt P04351 21-169, looked up)
chain: APTSSSTSSSTAEAQQQQQQQQQQQQHLEQLLMDLQELLSRMENYRNLKLPRMLTFKFYLPKQATELKDLQCLEDELGPLRHVLDLTQSKSFQLEDAENFISNIRVTVVKLKGSDNTFECQFDDESATVVDFLRRWIAFCQSIISTSPQ
As to B3, in the assay with recombinant mouse CD25 [4], the binding result is reported as “binds”.

B4: Antibody 12 (antibody, V domains shown)
VH: QVQLQESGPGLVKPSETLSLTCTVSGFSLTSYGIQWIRQPPGKGLEWIGVIWAGGSTNYNSALMSRVTISKDNSKNQFSLKLSSVTAADTAVYYCARAYGYDGSWLAYWGQGTLVTVSS
VL: DIQMTQSPSSLSASVGDRVTITCRASSSVSYMHWYQQKPGKAPKPLIFATSNLASGVPSRFSGSGSGTDYTLTISSLQPEDFATYYCQQWSSNPPTFGGGTKLEIK
notes: also called Ab12
With B4, in [5], the “EC50 (read off the curve)” value is roughly 0.3 µg/mL.

B5: Antibody 20 (antibody, V domains shown)
VH: B1 VH
VL: B4 VL
notes: also called Ab20
For the molecule B5, the 50% effective concentration (EC50 (read off the curve)) in [6] was roughly 0.2 µg/mL.

B6: Antibody 17 (antibody, V domains shown)
VH: B4 VH with I37V, N76S
VL: B4 VL with D1Q, M4L, A42S
notes: also called Ab17
As to B6, the “EC50 (read off the curve)” value in assay [7] was roughly 0.2 µg/mL.

B7: Antibody 21 (antibody, V domains shown)
VH: B1 VH
VL: B4 VL with D1Q, M4L, A42S
notes: also called Ab21
B7: the “EC50 (read off the curve)” value in assay [8] was roughly 0.2 µg/mL.

B8: Antibody 14 (antibody, V domains shown)
VH: B4 VH with I37V, N76S
VL: B1 VL
notes: also called AB14
Regarding B8, the concentration giving a half-maximal response (EC50 (read off the curve)) in assay [9] is roughly 0.3 µg/mL.

B9: Antibody 16 (antibody, V domains shown)
VH: B4 VH with I37V, N76S
VL: B4 VL
notes: also called Ab16
As to B9, the half-maximal effective concentration (EC50 (read off the curve)) in assay [10] was roughly 0.2 µg/mL.

B10: Antibody 15 (antibody, V domains shown)
VH: B4 VH with I37V, N76S
VL: B1 VL with E1Q, F70Y
notes: also called Ab15
With B10, the “EC50 (read off the curve)” value in assay [11] was roughly 0.3 µg/mL.

B11: Antibody 13 (antibody, V domains shown)
VH: B4 VH
VL: B4 VL with D1Q, M4L, A42S
notes: also called Ab13
On to B11, for which the “EC50 (read off the curve)” value in [12] is roughly 0.2 µg/mL.

B12: 7D4(mIgG2a), recombinant anti-mouse CD25 antibody with mouse IgG2a and kappa constant regions (antibody)
heavy: EVQLQQSGAALVKPGASVKMSCKASGYSFPDSWVTWVKQSHGKSLEWIGDIFPNSGATNFNEKFKGKATLTVDKSTSTAYMELSRLTSEDSAIYYCTRLDYGYWGQGVMVTVSSAKTTAPSVYPLAPVCGDTTGSSVTLGCLVKGYFPEPVTLTWNSGSLSSGVHTFPAVLQSDLYTLSSSVTVTSSTWPSQSITCNVAHPASSTKVDKKIEPRGPTIKPCPPCKCPAPNLLGGPSVFIFPPKIKDVLMISLSPIVTCVVVDVSEDDPDVQISWFVNNVEVHTAQTQTHREDYNSTLRVVSALPIQHQDWMSGKEFKCKVNNKDLPAPIERTISKPKGSVRAPQVYVLPPPEEEMTKKQVTLTCMVTDFMPEDIYVEWTNNGKTELNYKNTEPVLDSDGSYFMYSKLRVEKKNWVERNSYSCSVVHEGLHNHHTTKSFSRTPGK
light: DVVLTQTPPTLSATIGQSVSISCRSSQSLLHSNGNTYLNWLLQRPGQPPQLLIYLASRLESGVPNRFSGSGSGTDFTLKISGVEAEDLGVYYCVQSSHFPNTFGVGTKLEIKRADAAPTVSIFPPSSEQLTSGGASVVCFLNNFYPKDINVKWKIDGSERQNGVLNSWTDQDSKDSTYSMSSTLTLTKDEYERHNSYTCEATHKTSTSPIVKSFNRNEC
notes: also called 7D4m2a; a7D4 mIgG2a
For B12, the Kd with recombinant mouse CD25 [13] is roughly 1 nM; in assay [14] it was 2.6 nM.

B13: 7D4(mIgG1), recombinant anti-mouse CD25 antibody with murine IgG1 and kappa constant regions (antibody)
heavy: EVQLQQSGAALVKPGASVKMSCKASGYSFPDSWVTWVKQSHGKSLEWIGDIFPNSGATNFNEKFKGKATLTVDKSTSTAYMELSRLTSEDSAIYYCTRLDYGYWGQGVMVTVSSAKTTPPSVYPLAPGSAAQTNSMVTLGCLVKGYFPEPVTVTWNSGSLSSGVHTFPAVLQSDLYTLSSSVTVPSSTWPSQTVTCNVAHPASSTKVDKKIVPRDCGCKPCICTVPEVSSVFIFPPKPKDVLMISLTPKVTCVVVDISKDDPEVQFSWFVDDVEVHTAQTKPREEQINSTERSVSELPILHQDWLNGKEFKCRVNSAAFPAPIEKTISKTKGRPKAPQVYTIPPPKEQMAKDKVSLTCMITNEFPEDITVEWQWNGQPAENYKNTQPIMDTDGSYFVYSKLNVQKSNWEAGNTFTCSVLHEGLHNHHTEKSLSHSPGK
light: B12 light
notes: also called a7D4(mIgG1); 7D4 (mlg1)
As for B13, the Kd with recombinant mouse CD25 [13] was roughly 1 nM.

B14: 2E4, anti-mouse CD25 antibody from the 2E4 hybridoma (antibody, V domains shown)
VH: EVQLVESGGGLVQPGRSLKLSCAASGFTFSDYGMAWVRQAPTKGLEWVASITNGGLNTYYRDSVKGRFTISRDNAKCTLYLQMDSLRSEDTATYYCATGGFSFWGQGTLVTVSS
VL: DIVMTQSPTSMSISVGDRVTMNCKASQNVDSNVDWYQQKTGQSPKLLIYKASNRYTGVPDRFTGSGSGTDFTFTIRNMQAEDLAVYYCMQSNSYPLTFGSGTKLEIK
notes: also called 2E4 (mlg1)
Regarding B14, the Kd in [14] is 114 nM.
